The values below come from US20260266833A1 (AXOIYA, published 2026).

Where a chain is given by its changes, count along the chain named. In names and notes the source's numbering stands. Non-standard residues stand in square brackets, D forms with d. No end group written: not given here. *: point of attachment. Biotin = O=C1N[C@H]2[C@H](CS[C@H]2CCCCC(=O)*)N1; Arg(Me) = CNC(=N)NCCC[C@H](N)C(=O)O; Ahx = NCCCCCC(=O)O

Sequences and labels used below:
T1: H3K27me3 peptide (Kme3 (trimethyl-lysine) at the 10th residue (KQLATKAARKme3SAPATGGVK); N-terminus biotin + aminohexanoic acid linker, or FITC at the N-terminus for fluorescence polarization)
T1 construct: Synthetic peptide (GenScript); One entry is used for the biotinylated and the FITC-labelled form
T1 peptide: KQLATKAARKSAPATGGVK

T2: H3K14Ac
T2 construct: also called H3K14Ac peptide
T2 peptide: {Biotin-Ahx}-TARKSTGGK(Ac)APRKQLAT

T3: H3K14
T3 construct: also called H3K14 peptide (non-modified)
T3 peptide: {Biotin-Ahx}-TARKSTGGKAPRKQLAT

T4: H3R17
T4 construct: also called H3R17 peptide (non-modified)
T4 peptide: {Biotin-Ahx}-KSTGGKAPRKQLATKAA

T5: H3R17me1
T5 construct: also called H3R17me1 peptide
T5 peptide: {Biotin-Ahx}-KSTGGKAP[Arg(Me)]KQLATKAA

B1: Cbx7.wt chromodomain-luciferase fusion (other)
chain: MSYYHHHHHHGSDYKDDDDKSSGENLYFQGSGGSSAIGEQVFAVESIRKKRVRKGKVEYLVKWKGWPPKYSTWEPEEHILDPRLVMAYEEKEERDRASGYRKRGPK
notes: not shown: engineered YY5 firefly luciferase from Photinus pyralis fused to the C-terminus
B2: Cbx2.VD chromodomain (tags removed) (designed binder)
chain: GEDVFAAECILSKRLRKGKLEYLVKWEGWSSKHNSWEPEENILDPRLLLAFQKKEHEKEVQNR
B3: Cbx7.VD chromodomain (tags removed) (designed binder)
chain: SAIGEDVFAVESIRKKRVRKGKVEYLVKWEGWPPKYSTWEPEEHILDPRLVMAYEEKEERDRASGYRKRGPK
notes: also called Cbx7 Q9D/K33E
B4: Cbx7 Q9D chromodomain (tags removed) (designed binder)
chain: B3 chain with E30K
notes: FP: His6 and Flag tags removed with TEV protease
B5: Cbx7 K33E chromodomain (tags removed) (designed binder)
chain: B3 chain with D6Q
notes: as for B4
B6: phage-displayed Cbx7.V4 (designed binder)
chain: B3 chain with G4C, E5D, D6N, P34Q, K35E
B7: phage-displayed Cbx7.V6 (designed binder)
chain: B3 chain with G4F, A9P, E30K, P34S, K35E
B8: phage-displayed Cbx7.V2 (designed binder)
chain: B3 chain with G4C, E5D, D6N, F8Y, A9P, E30K, P34L, K35E
B9: phage-displayed Cbx7.V3 (designed binder)
chain: B3 chain with G4C, D6Y, V7I, A9S, K35E, S37M
B10: phage-displayed Cbx7.V1 (designed binder)
chain: B3 chain with E5D, V7I, P34L, K35E
B11: phage-displayed Cbx7.V5 (designed binder)
chain: B3 chain with E5H, A9P, E30R, G31D, P34E, K35Q
B12: Cbx7.V1 back-mutant I10V, His6- and Flag-tagged (designed binder, not shown: small tags and cut ends)
chain: B3 chain with E5D, P34L, K35E
B13: Cbx7.V1 back-mutant L37P, His6- and Flag-tagged (designed binder, not shown: small tags and cut ends)
chain: B3 chain with E5D, V7I, K35E
B14: Cbx7.V1 back-mutant D9Q, His6- and Flag-tagged (designed binder, not shown: small tags and cut ends)
chain: B3 chain with E5D, D6Q, V7I, P34L, K35E
B15: Cbx7.V1 back-mutant D8E, His6- and Flag-tagged (designed binder, not shown: small tags and cut ends)
chain: B3 chain with V7I, P34L, K35E
B16: Cbx7.V1 back-mutant E38K, His6- and Flag-tagged (designed binder, not shown: small tags and cut ends)
chain: B3 chain with E5D, V7I, P34L
B17: Cbx7.V1 chromodomain, His6- and Flag-tagged (designed binder, not shown: small tags and cut ends)
chain: B3 chain with E5D, V7I, P34L, K35E
notes: BLI form; tags are said to be removed only for FP and ITC
B18: Cbx7.VD chromodomain-luciferase fusion (designed binder)
chain: B1 chain with Q40D, K64E
notes: as for B1
B19: Cbx2.VD chromodomain-luciferase fusion (designed binder)
chain: MSYYHHHHHHGSDYKDDDDKSSGENLYFQGSGGSGEDVFAAECILSKRLRKGKLEYLVKWEGWSSKHNSWEPEENILDPRLLLAFQKKEHEKEVQNR
notes: as for B1
B20: Cbx8.VD chromodomain-luciferase fusion (designed binder)
chain: MSYYHHHHHHGSDYKDDDDKSSGENLYFQGSGGSGEDVFAAEALLKRRIRKGRMEYLVKWEGWSQKYSTWEPEENILDARLLAAFEEREREMELYGP
notes: as for B1

One assay deals with T6, H4K20 peptide (N-terminus biotin + aminohexanoic acid linker). Description: luciferase-fusion assay on immobilized peptide, fusion at 100 nM, normalized to H3K9me3. The protocol:
(§1) For luciferase-based assays, 384-well white plates (PerkinElmer) were coated for 16 h at 4° C. with 4 μg/ml streptavidin (New England Biolabs, N7021S) in TBS pH 8.5 (50 mM Tris-HCl pH 8.5, 150 mM NaCl). Each well was blocked with 60 μl/well of TBS pH 8.5 containing 0.5% BSA (TB buffer) and incubated at 25° C. for 1 h. Plates were washed four times with 90 μl/well of PBS pH 7.4, 0.05% Tween-20 (PT buffer) and incubated with 25 μl/well of biotinylated histone peptides at 5 μg/ml in TB buffer pH 8.5 for 30 min at 25° C. Plates were washed and incubated with Cbx chromodomain-luciferase fusions diluted to 0.1 nM for Cbx. VD or 100 nM for Cbx.wt in TB buffer, 0.05% Tween-20, 1 mM DTT, 5% glycerol (TBT buffer). Plates were incubated for 1 h at 25° C. with gentle shaking, washed six times and luminescence intensity was measured with a Biotek Synergy 5 plate reader (Biotek) using the ONE-Glo™ EX luciferase assay system reagent (Promega). Following background subtraction of the luminescence signal derived from wells coated with streptavidin, the luminescence intensity was normalized to wells with immobilized H3K9me3 peptide.
(§2) To enhance detection sensitivity, each chromodomain was expressed as a fusion to the N-terminus of an engineered firefly luciferase and binding was measured by luminescence intensity.
For the molecule B1, the binding result is “binds”.

The target in the next assay is T7, H4K20me3 (Kme3 at peptide residue 8 (histone H4 K20); N-terminal biotin and aminohexanoic acid linker).
T7 construct: also called H4K20Me3 peptide
The assay is described as above. The protocol: as §1, §2
With B1, the binding result is given as “binds”.

The next assay deals with T1, H3K27me3 peptide. Description: fluorescence polarization, FITC-peptide 0.5 nM.
Description: (§4) Fluorescence polarization (FP) assays were performed in a 20 μl volume at a constant histone peptide concentration of 0.5 nM. Binding measurements were performed in FP buffer (25 mM HEPES pH 7.5, 150 mM NaCl, 1 mM DTT, 0.01% TritonX-100) by mixing in a 384-well black plate (Corning) 0.5 nM FITC-labeled histone peptides with serial dilutions of wild-type Cbx chromodomains ranging from 200-0.2 μM. For affinity determination of Cbx7.V1 and all Cbx. VDs, chromodomains were serially diluted from 50 μM to 50 nM. Samples were incubated for 30 min at 25° C. prior to data acquisition. […] Dissociation constants were determined using Prismv.9.3 (GraphPad Software Inc) with a one-site total binding model.
FP assays was used to measure the affinities of each wild-type Cbx chromodomain (Cbx.wt) and its Cbx. VD version for the H3K9me3 and H3K27me3 peptides (Table 13).
Regarding B2, the Kd came to 3000 nM.
The same measure, in the same setting: the result for B3 reads 5000 nM.

A further assay concerns the target T1, H3K27me3 peptide. Description: fluorescence polarization, FITC-peptide 0.5 nM. The source holds these as a separate data set.
Description: as §4
For the molecule B4, the Kd worked out at 100000 nM.
On the same count and under the same terms, the result for B3 reads 5000 nM; that for B5, 20000 nM.

The target in a further assay is T6, H4K20 peptide. Description: phage ELISA, specificity heatmap. How it is done:
(§3) Phage ELISA experiments were performed by coating 384-well MAXISORP plates (Thermo Fisher Scientific) with 25 μl/well of 2 μg/ml streptavidin (New England Biolabs, N7021S) in PBS pH 7.4, and incubating them at 4° C. for 16 h. Each well was blocked with 60 μl/well of PBS pH 7.4 containing 0.5% BSA (PB buffer) and incubated at 25° C. for 1 h. Plates were washed four times with 90 μl/well of PBS pH 7.4 containing 0.05% Tween-20 (PT buffer) and incubated with 25 μl/well of biotinylated histone peptides at 2 μg/ml in PBS pH 7.4 for 30 min at 25° C. Plates were incubated with phage stocks previously diluted three-fold in PB buffer containing 0.05% Tween-20 (PBT buffer) at 25° C. for 1 h with gentle agitation. Plates were washed and bound phage was detected using 25 μl/well of an anti-M13-HRP-conjugated antibody (1:3,000 dilution in PT buffer; SinoBiological, 11973-MM05T-H). Following incubation at 25° C. for 30 min with gentle shaking, plates were washed, and binding was assessed by adding 25 μl/well of the 3,3′,5,5′-tetramethylbenzidine (TMB) (Thermo Fisher) chromogenic substrate. Plates were incubated with TMB at 25° C. with gentle shaking for 5-10 min, and the colorimetric reaction was stopped by addition of 25 μl/well of a IM H3PO4 solution. Plates were read spectrophotometrically at 450 nm using a PowerWave XS microplate reader (BioTek).
For B6, the binding result is “no binding”.
Turning to B7, the binding result was “no binding”.
Same read-out and setting: the same measure for B8: “no binding”; for B9: “no binding”; for B10: “no binding”.
On the same count and under the same terms, the same measure for B11: “no binding”.

A further assay concerns the target T2, H3K14Ac. Description: phage ELISA, specificity heatmap. How it is done: as §3
Turning to B6, the binding result is recorded as “no binding”.
On the same count and under the same terms, the same measure for B7: “no binding”; for B8: “no binding”.
Same read-out and setting: the result for B9 reads “no binding”; that for B10, “no binding”; that for B11, “no binding”.

For a further assay, the target named is T7, H4K20me3. Description: phage ELISA, specificity heatmap. The protocol: as §3
Consider B6, for which the binding result is “no binding”.
In the case of B7, the binding result is listed as “no binding”.
The same measure, in the same setting: the result for B8 reads “no binding”; that for B9, “no binding”; that for B10, “no binding”.
Consider B11, for which the binding result is “no binding”.

For the next assay, the target named is T3, H3K14. Description: phage ELISA, specificity heatmap. The protocol:
as §3
As for B6, the binding result is recorded as “no binding”.
Same read-out and setting: the same measure for B7: “no binding”.
The same measure, in the same setting: the result for B8 reads “no binding”; that for B9, “no binding”.
The same measure, in the same setting: the result for B10 reads “no binding”.
On to B11, for which the binding result is recorded as “no binding”.

The next assay deals with T1, H3K27me3 peptide. Description: BLI, biotinylated peptide on streptavidin tips, steady state.
Description: BLI experiments were performed on an Octet HTX system (ForteBio) using biosensor tips coated with streptavidin to immobilize biotinylated H3K9me3 and H3K27me3 peptides. Binding analysis was performed by analyzing the association of biosensor-immobilized methylated peptides to Cbx7.V1 variants in solution at 5 or 1 μM. Binding assays were performed at 25° C. in BLI reaction buffer (25 mM HEPES pH 7.0, 150 mM NaCl, 1 mg/ml BSA, 0.01% Tween-20). Dissociation constants (KD) were obtained by fitting the response wavelength shifts in the steady-state regions with the Langmuir binding model.
Take B12: the Kd is 2000 nM.
Still for that read-out and setting: the result for B13 reads 2500 nM; that for B14, 2000 nM; that for B15, 2000 nM.
On the same count and under the same terms, the same measure for B16: 1500 nM.
The same measure, in the same setting: the result for B17 reads 2000 nM.

In a further assay the target is T6, H4K20 peptide. Description: luciferase-fusion assay on immobilized peptide, fusion at 0.1 nM, normalized to H3K9me3. How it is done:
as §1, §2
With B18, the binding result is recorded as “binds”.

Another assay has as its target T7, H4K20me3. The description is as above. The protocol: as §1, §2
B18: the binding result was “binds”.

Another assay has as its target T6, H4K20 peptide. Description: luciferase-fusion assay on immobilized peptide. The protocol: as §1, §2
As to B19, the binding result is “no binding (tested: 0.1 nM)”.
Regarding B20, the binding result was “no binding (tested: 0.1 nM)”.

The target of a further assay is T4, H3R17. Description: luciferase-fusion assay on immobilized peptide. How it is done:
as §1, §2
For B19, the binding result is recorded as “no binding (tested: 0.1 nM)”.
In the case of B18, the binding result was “no binding (tested: 0.1 nM)”.
Still for that read-out and setting: the result for B20 reads “no binding (tested: 0.1 nM)”.

For another assay, the target named is T5, H3R17me1. Description: luciferase-fusion assay on immobilized peptide. How it is done: as §1, §2
As for B19, the binding result is recorded as “no binding (tested: 0.1 nM)”.
Same read-out and setting: the result for B18 reads “no binding (tested: 0.1 nM)”.

In a further assay the target is T7, H4K20me3. Description: luciferase-fusion assay on immobilized peptide. The protocol:
as §1, §2
Turning to B19, the binding result was “no binding (tested: 0.1 nM)”.
Regarding B20, the binding result is “no binding (tested: 0.1 nM)”.

The target of the next assay is T3, H3K14. Description: luciferase-fusion assay on immobilized peptide. The protocol: as §1, §2
As to B19, the binding result was “no binding (tested: 0.1 nM)”.
Still for that read-out and setting: the same measure for B18: “no binding (tested: 0.1 nM)”.
Still for that read-out and setting: the same measure for B20: “no binding (tested: 0.1 nM)”.
